# Assay results reported in PMC2267071.
# Values joined by “and” are separate entries in the source; they are usually repeats but may differ in a detail not shown here. Equal entries are not always repeated.
# Assays:
# [1] = target: His5 (position 5, -TESHHK----); test: NMR; details: 25 C; free peptide (no metal), 5 mM
# [2] = target: His4 (position 4, --TESHHK---); test: NMR; details: 25 C; free peptide (no metal), 5 mM
# [3] = target: Lys6 (position 6, TESHHK-----); test: potentiometry; details: 25 C, 0.1 M KNO3
# [4] = target: Glu2 (position 2, ----TESHHK-); test: potentiometry; details: 25 C; 0.1 M KNO3; free peptide (no metal)
# [5] = target: His5 (position 5, -TESHHK----); test: potentiometry; details: 25 C; 0.1 M KNO3; free peptide (no metal)
# [6] = target: His4 (position 4, --TESHHK---); test: potentiometry; details: 25 C; 0.1 M KNO3; free peptide (no metal)
# [7] = target: His4 (position 4, --TEAHHK---); test: NMR; details: 25 C; free peptide (no metal), 5 mM
# [8] = target: His5 (position 5, -TEAHHK----); test: NMR; details: 25 C; free peptide (no metal), 5 mM
# [9] = target: His4 (position 4, --TEAHHK---); test: potentiometry; details: 25 C; 0.1 M KNO3; free peptide (no metal)
# [10] = target: His5 (position 5, -TEAHHK----); test: potentiometry; details: 25 C; 0.1 M KNO3; free peptide (no metal)
# [11] = target: Glu2 (position 2, ----TEAHHK-); test: potentiometry; details: 25 C; 0.1 M KNO3; free peptide (no metal)
# [12] = target: Lys6 (position 6, TEAHHK-----); test: potentiometry; details: 25 C, 0.1 M KNO3
# [13] = target: His5 (position 5, -TASHHK----); test: NMR; details: 25 C; free peptide (no metal), 5 mM
# [14] = target: His4 (position 4, --TASHHK---); test: NMR; details: 25 C; free peptide (no metal), 5 mM
# [15] = target: His5 (position 5, -TASHHK----); test: potentiometry; details: 25 C; 0.1 M KNO3; free peptide (no metal)
# [16] = target: His4 (position 4, --TASHHK---); test: potentiometry; details: 25 C; 0.1 M KNO3; free peptide (no metal)
# [17] = target: Lys6 (position 6, TASHHK-----); test: potentiometry; details: 25 C; 0.1 M KNO3; free peptide (no metal)
# [18] = Zn(II)-bound peptide (ZnH-1L to ZnH-2L step), peptide:Zn ratios 1:1 and 2:1
protein,measurement,setting,value
TESHHK,pKa,[1],6.41 (2) and 6.88 (5)
same,pKa,[2],6.35 (I) and 6.12 (4)
same,pKa,[3]; [18],10.30
same,pKa,[3]; free peptide (no metal),10.28
same,pKa,[4],3.85
same,pKa,[5],6.78
same,pKa,[6],5.90
TEAHHK,pKa,[7],6.42 (2) and 6.15 (3)
same,pKa,[8],6.48 (2) and 6.72 (2)
same,pKa,[9],6.00
same,pKa,[10],6.68
same,pKa,[11],4.10
same,pKa,[12]; [18],10.34
same,pKa,[12]; free peptide (no metal),10.25
TASHHK,pKa,[13],6.30 (2) and 6.61 (4)
same,pKa,[14],6.29 (2) and 6.06 (3)
same,pKa,[15],6.62
same,pKa,[16],5.74
same,pKa,[17],10.48
